Test results reported in article PMC11737055.

Molecular target: TDP-43 (UniProt Q921F2)
Assay: anti-GFP co-IP, anti-RFP Western blot
Settings: reference: GFP-FMRP wild type; sites S499

binding against the reference: weaker
Substance: FMRP (from UniProt P35922) GFP-FMRP S499A
